According to US20160331662A1, “Compositions that Inhibit and Prevent the Formation of Dental Caries and Methods of Using the Same” (priority 2014, published 2016):

Tests used:
[1] = molecular target: T1, iSRCR123 (Deglycosylated) (Homo sapiens, UniProt Q9UGM3); assay: SPR binding of analytes to on-chip deglycosylated iSRCR123; conditions: ligand iSRCR123 (Deglycosylated)
T1 construct: multiple SRCR domains have better adherence capability compared to that of a single SRCR domain; made in house; host or cells: Drosophila expression system
T1 sequence (Q9UGM3 102-463 limits assumed): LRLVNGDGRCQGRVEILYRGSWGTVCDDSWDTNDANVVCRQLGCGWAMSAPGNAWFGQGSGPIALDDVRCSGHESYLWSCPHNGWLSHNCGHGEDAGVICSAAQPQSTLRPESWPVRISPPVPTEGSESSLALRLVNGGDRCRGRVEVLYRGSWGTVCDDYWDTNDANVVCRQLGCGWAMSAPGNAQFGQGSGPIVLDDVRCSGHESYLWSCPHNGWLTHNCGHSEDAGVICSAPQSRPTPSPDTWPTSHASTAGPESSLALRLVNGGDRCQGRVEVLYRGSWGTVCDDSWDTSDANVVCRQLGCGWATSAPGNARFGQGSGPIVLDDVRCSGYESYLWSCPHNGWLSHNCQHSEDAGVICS
Method: (§1) Real time binding analyses of the SRCR domains with AgI/II fragments were carried out using the BIAcore 2000 system. […] Self association of iSRCR1 or iSRCR123 (at 2 μM) were also determined in a similar manner as described above. Finally to determine the effect of calcium SPR analysis was carried out by dialyzing the analytes and ligands in binding buffer devoid of CaCl2.
(§2) On-chip Deglycosylation of the iSRCR1 and iSRCR123 was carried out after immobilizing them on CM5 sensor chip. Enzymatic deglycosylation was done to remove N- and O-linked carbohydrates from iSRCR1 and iSRCR123. Briefly, after immobilization of iSRCR1 and iSRCR123, deglycosylation was carried out at native conditions by incubating the entire chip surface externally with a cocktail containing a total reaction volume of 40 μl made up of 4 μl of 10×G7reaction buffer, 4 μl of 10% NP40, 4 μl of Neuraminidase (Sigma), 18 μl water and 10 μl of O-glycosidase (New England Biolabs, Inc.,) and similarly following manufacturers protocols for EndoH (New England Biolabs, Inc). Later, the chip was sealed and incubated overnight at 37° C. Subsequently the chip was thoroughly washed with binding buffer (20 mM HEPES, 150 mM NaCl, 2.5 mM CaCl2) to remove the deglycosylating enzymes and other remnants. Binding studies with FL^AgI/II and FL^SspB and subfragments were then carried out as described above and regenerated as described in Table 2.
(§3) In addition, the SRCR holding two distinct surfaces compounded the elucidation of individual kinetics, and presently there are no modeling protocols available to determine the individual affinities for such a system, therefore for simplicity we have utilized a single site 1:1 Langmuir model. All experiments were carried out in triplicates and the kinetics of the association (KA) and dissociation (KD) rate constants were deduced using the 1:1 Langmuir Kinetic model on the BIA-Evaluation software. The concentration (C in μM) of analyte (FL^AgI/II or FL^SspB at 2 μM) that adhered to the immobilized ligand (iSRCR1, iSRCR123) within the flow cell was calculated using the formula C=(RU/MW)×(1/V), where RU is resonance unit (1 RU=1 pg of bound protein), MW is molecular weight of analyte and V is volume of flow cell (1.2×10^−10 L).

iSRCR123 [2] = molecular target: T2, iSRCR123 (Homo sapiens, UniProt Q9UGM3); assay: SPR binding of analytes to immobilized iSRCR123 (CM5 chip, 1:1 Langmuir); conditions: for KA / Kd / ka / kd: ligand iSRCR123
T2 construct: multiple SRCR domains have better adherence capability compared to that of a single SRCR domain; made in house; host or cells: Drosophila expression system
T2 sequence (Q9UGM3 102-463 limits assumed): as above
Method: as §1, §3

iSRCR1 (Deglycosylated) = molecular target: T3, iSRCR1 (Deglycosylated) (Homo sapiens, UniProt Q9UGM3); assay: SPR binding of analytes to on-chip deglycosylated iSRCR1; conditions: ligand iSRCR1 (Deglycosylated)
T3 construct: strongly proves that a single SRCR domain contains the adherence sites for AgI/II and SspB; made in house; host or cells: Drosophila expression system
T3 sequence (Q9UGM3 102-202): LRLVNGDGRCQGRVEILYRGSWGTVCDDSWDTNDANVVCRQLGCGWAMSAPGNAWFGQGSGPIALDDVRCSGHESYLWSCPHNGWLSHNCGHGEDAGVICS
Method: as §1, §2, §3

iSRCR1 [3] = molecular target: T4, iSRCR1 (Homo sapiens, UniProt Q9UGM3); assay: SPR binding of analytes to immobilized iSRCR1 (CM5 chip, 1:1 Langmuir); conditions: ligand iSRCR1
T4 construct: strongly proves that a single SRCR domain contains the adherence sites for AgI/II and SspB; made in house; host or cells: Drosophila expression system
T4 sequence (Q9UGM3 102-202 limits assumed): as the sequence (Q9UGM3 102-202) above
Method: as §1, §3

SAG = molecular target: T5, SAG (Homo sapiens, UniProt Q9UGM3); assay: SPR binding of analytes to immobilized SAG; conditions: ligand SAG
T5 construct: from tissue; host or cells: saliva (purified SAG, gift)
T5 sequence (Q9UGM3 20-2413): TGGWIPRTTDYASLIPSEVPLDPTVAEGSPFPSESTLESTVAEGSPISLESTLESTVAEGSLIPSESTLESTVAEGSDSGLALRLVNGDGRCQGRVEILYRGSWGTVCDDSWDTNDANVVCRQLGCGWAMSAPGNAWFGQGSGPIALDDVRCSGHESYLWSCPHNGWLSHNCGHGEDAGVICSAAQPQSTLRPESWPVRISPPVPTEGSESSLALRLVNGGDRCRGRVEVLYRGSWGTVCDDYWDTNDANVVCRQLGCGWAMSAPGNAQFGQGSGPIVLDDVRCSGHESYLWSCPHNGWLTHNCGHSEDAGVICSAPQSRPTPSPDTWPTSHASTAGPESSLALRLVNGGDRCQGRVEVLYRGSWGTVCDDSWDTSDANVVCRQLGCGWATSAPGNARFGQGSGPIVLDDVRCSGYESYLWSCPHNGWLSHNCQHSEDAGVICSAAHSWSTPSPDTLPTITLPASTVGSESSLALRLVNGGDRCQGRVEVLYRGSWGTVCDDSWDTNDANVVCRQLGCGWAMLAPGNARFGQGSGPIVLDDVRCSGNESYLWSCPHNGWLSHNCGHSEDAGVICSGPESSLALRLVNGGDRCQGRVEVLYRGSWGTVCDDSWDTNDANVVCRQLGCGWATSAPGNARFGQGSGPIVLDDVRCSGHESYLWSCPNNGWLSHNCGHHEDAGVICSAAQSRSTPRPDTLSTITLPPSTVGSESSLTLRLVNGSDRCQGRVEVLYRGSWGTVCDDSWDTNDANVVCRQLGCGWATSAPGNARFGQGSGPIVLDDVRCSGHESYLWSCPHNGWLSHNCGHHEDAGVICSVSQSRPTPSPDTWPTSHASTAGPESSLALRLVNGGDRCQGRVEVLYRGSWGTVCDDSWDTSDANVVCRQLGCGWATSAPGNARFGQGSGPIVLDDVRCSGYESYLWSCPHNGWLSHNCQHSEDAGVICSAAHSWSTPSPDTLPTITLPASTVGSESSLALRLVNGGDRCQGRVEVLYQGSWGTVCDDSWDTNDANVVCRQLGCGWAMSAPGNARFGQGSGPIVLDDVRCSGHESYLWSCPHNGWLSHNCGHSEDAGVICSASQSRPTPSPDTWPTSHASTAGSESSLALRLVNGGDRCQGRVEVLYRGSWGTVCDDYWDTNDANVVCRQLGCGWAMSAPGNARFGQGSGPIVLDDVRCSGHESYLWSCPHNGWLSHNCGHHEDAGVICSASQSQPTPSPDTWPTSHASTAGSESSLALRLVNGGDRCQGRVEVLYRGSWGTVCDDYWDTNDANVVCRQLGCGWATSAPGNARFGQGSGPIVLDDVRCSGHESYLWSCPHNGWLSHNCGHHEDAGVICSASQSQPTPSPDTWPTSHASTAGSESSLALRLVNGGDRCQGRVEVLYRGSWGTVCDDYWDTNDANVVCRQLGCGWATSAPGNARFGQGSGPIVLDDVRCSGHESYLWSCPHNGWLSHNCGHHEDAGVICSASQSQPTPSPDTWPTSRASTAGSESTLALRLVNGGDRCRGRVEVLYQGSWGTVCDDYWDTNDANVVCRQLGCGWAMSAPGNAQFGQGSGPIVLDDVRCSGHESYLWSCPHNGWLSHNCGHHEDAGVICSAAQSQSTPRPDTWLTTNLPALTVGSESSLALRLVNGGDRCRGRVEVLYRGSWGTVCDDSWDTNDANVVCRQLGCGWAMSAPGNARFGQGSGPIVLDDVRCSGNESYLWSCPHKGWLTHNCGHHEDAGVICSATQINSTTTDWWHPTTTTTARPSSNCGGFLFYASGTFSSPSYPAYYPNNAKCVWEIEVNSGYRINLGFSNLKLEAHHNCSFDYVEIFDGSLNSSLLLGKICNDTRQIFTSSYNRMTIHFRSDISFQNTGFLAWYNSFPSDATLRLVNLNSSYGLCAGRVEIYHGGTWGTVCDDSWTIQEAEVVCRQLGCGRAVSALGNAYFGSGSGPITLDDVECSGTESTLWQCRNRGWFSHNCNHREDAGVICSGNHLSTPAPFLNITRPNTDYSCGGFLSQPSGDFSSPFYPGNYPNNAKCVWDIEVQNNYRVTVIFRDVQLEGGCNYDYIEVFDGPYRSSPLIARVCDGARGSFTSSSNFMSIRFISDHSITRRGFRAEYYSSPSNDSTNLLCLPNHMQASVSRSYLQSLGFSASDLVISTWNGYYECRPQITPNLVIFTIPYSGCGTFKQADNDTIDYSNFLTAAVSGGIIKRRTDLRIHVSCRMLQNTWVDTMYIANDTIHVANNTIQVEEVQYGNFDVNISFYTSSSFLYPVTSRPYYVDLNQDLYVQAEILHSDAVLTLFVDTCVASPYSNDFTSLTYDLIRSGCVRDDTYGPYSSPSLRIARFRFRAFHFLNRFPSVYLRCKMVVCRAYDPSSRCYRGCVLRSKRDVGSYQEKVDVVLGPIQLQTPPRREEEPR
Method: as §1, §3

iSRCR1 [4] = molecular target: T4, iSRCR1; assay: Competition adherence SPR on immobilized iSRCR1; format: binding; conditions: FL injected first
Method: (§4) To determine whether AgI/II domains bound to the same site on SRCR domains, competitive binding SPR experiments were conducted in triplicates as previously described where each fragment of AgI/II (FL, A3VP1, or C123) or SspB (FL, A3VP1 or C123) was initially passed over the chip surface immobilized with either iSRCR1, iSRCR123 or SAG for 60 seconds to saturate available binding sites. The response curve of AgI/II or SspB first fragment was recorded, where the maximal RU (RU1) was considered as the base line for the second injection, and thereafter the competing fragment was injected and its response was recorded as RU2. The adherence of the second fragment was then calculated (RU2−RU1) for all SPR competing assay as reported earlier.

iSRCR123 [5] = molecular target: T2, iSRCR123; assay: Competition adherence SPR on immobilized iSRCR123; format: binding; conditions: FL injected first
Method: as §4

Row | Molecule | KA [1] [M⁻¹] | Kd [1] [nM] | ka [1] [M⁻¹ s⁻¹] | kd [1] [s⁻¹] | KA (iSRCR123 [2]) [M⁻¹] | Kd (iSRCR123 [2]) [nM] | ka (iSRCR123 [2]) [M⁻¹ s⁻¹] | kd (iSRCR123 [2]) [s⁻¹] | KA (iSRCR1 (Deglycosylated)) [M⁻¹] | Kd (iSRCR1 (Deglycosylated)) [nM] | ka (iSRCR1 (Deglycosylated)) [M⁻¹ s⁻¹] | kd (iSRCR1 (Deglycosylated)) [s⁻¹] | KA (iSRCR1 [3]) [M⁻¹] | Kd (iSRCR1 [3]) [nM] | ka (iSRCR1 [3]) [M⁻¹ s⁻¹] | kd (iSRCR1 [3]) [s⁻¹] | also measured
1 | C123^AgI/II: S. mutans AgI/II C-terminal C123 fragment (57.3 kDa) (protein) VNKEIRNNNDINIDRTLVAKQSVVKFQLKTADLPAGRDETTSFVLVDPLPSGYQFNPEATKAASPGFDVTYDNATNTVTFKATAATLATFNADLTKSVATIYPTVVGQVLNDGATYKNNFTLTVNDAYGIKSNVVRVTTPGKPNDPDNPNNNYIKPTKVNKNENGVVIDGKTVLAGSTNYYELTWDLDQYKNDRSSADTIQKGFYYVDDYPEEALELRQDLVKITDANGNEVTGVSVDNYTNLEAAPQEIRDVLSKAGIRPKGAFQIFRADNPREFYDTYVKTGIDLKIVSPMVVKKQMGQTGGSYENQAYQIDFGNGYASNIIINNVPKINPKKDVTLTLDPADTNNVDGQTIPLNTVFNYRLIGGIIPADHSEELFEYNFYDDYDQTGDHYTGQYKVFAKVDITFKDGSIIKSGAELTQYTTAEVDTAKGAITIKFKEAFLRSVSIDSAFQAESYIQMKRIAVGTFENTYINTVNGVTYSSNTVK | 458000 | 2180 | 3010 | 0.00658 | 1.15e+07 | 87 | 8290 | 0.000721 | 48100 | 20800 | 1180 | 0.0246 | 6.46e+06 | 151 | 15400 | 0.00232 | 
2 | A3VP1^AgI/II: S. mutans AgI/II apical A3VP1 fragment (54.4 kDa) (protein) AANEADYQAKLTAYQTELARVQKANADAKAAYEAAVAANNAANAALTAENTAIKKRNADAKADYEAKLAKYQADLAKYQKDLADYPVKLKAYEDEQASIKAALAELEKHKNEDGNLTEPSAQNLVYDLEPNANLSLTTDGKFLKASAVDDAFSKSTSKAKYDQKILQLDDLDITNLEQSNDVASSMELYGNFGDKAGWSTTVSNNSQVKWGSVLLERGQSATATYTNLQNSYYNGKKISKIVYKYTVDPKSKFQGQKVWLGIFTDPTLGVFASAYTGQVEKNTSIFIKNEFTFYDEDGKPINFDNALLSVASLNRENNSIEMAKDYTGKFVKISGSSIGEKNGMIYATDTLNFRQGQGGARWTMYTRASEPGSGWDSSDAPNSWYGAGAIRMSGPNNSVTLGAISSTLVVPADPTMAIETGKKPNIWYSLNGKIRAVNVPKVTKEKPTPPVKPTAPTKPTYETEKPLKPAPVAPNYEKEPTPPTRTPDQ | 1.22e+06 | 818 | 4070 | 0.00333 | 7.98e+06 | 125 | 19900 | 0.00249 | 1.92e+06 | 520 | 5270 | 0.00274 | 8.57e+06 | 117 | 28000 | 0.00327 | 
3 | FL^SspB: S. gordonii SspB full length construct (151.9 kDa) (protein) DEVTETTSTSTVEVATTGNPATNLPEAQGEMSQVAKESQAKAGSKESALPVEVSSADLDKAVADAKSAGVKVVQDETKDKGTATTATDNAQKQDEIKSDYAKQAEEIKTTTEAYKKEVAAHQAETDKINAENKAADDKYQKDLKSHQEEVEKINTANATAKAEYEAKLAQYQKDLATVKKANEDSQQDYQNKLSAYQTELARVQKANAEAKEAYEKAVKENTAKNEALKVENEAIKQRNETAKATYEAAMKQYEADLAAIKKANEDNDADYQAKLAAYQTELARVQKANAEAKEAYDKAVKENTAKNTAIQAENEAIKQRNETAKATYDAAVKKYEADLAAVKQANATNEADYQAKLAAYQTELARVQKANADAKATYEKAVEDNKAKNAAIKAENEEIKQRNAVAKTDYEAKLAKYEADLAKYKKEFAAYTAALAEAESKKKQDGYLSEPRSQSLNFKSEPNAIRTIDSSVHQYGQQELDALVKSWGISPTNPDRKKSRAYSYFNAINSNNTYAKLVLEKDKPVDVTYTGLKNSSFNGKKISKVVYTYTLKETGFNDGTKMTMFASSDPTVTAWYNDYFTSTNINVKVKFYDEEGQLMNLTGGLVNFSSLNRGNGSGAIDKDAIESVRNFNGRYIPISGSSIKIHENNSAYADSSNAEKSLGARWNTSEWDTTSSPNNWYGAIVGEITQSEISFNMASSKSGNIWFAFNSNINAIGVPTKPVAPTAPTQPMYETEKPLEPAPVAPSYENEPTPPVKTPDQPEPSKPEEPTYETEKPLEPAPVAPSYENEPTPPVKTPDQPEPSKPEEPNYETEKPLEPAPVAPSYENEPTPPVKIPDQPEPSKPEEPTYDPLPTPPLAPTPKQLPTPPVVPTVHFHYSSLLAQPQINKEIKNEDGVDIDRTLVAKQSIVKFELKTEALTAGRPKTTSFVLVDPLPTGYKFDLDATKAASTGFDTTYDEASHTVTFKATDETLATYNADLTKPVETLHPTVVGRVLNDGATYTNNFTLTVNDAYGIKSNVVRVTTPGKPNDPDNPNNNYIKPTKVNKNKEGLNIDGKEVLAGSTNYYELTWDLDQYKGDKSSKEAIQNGFYYVDDYPEEALDVRPDLVKVADEKGNQVSGVSVQQYDSLEAAPKKVQDLLKKANITVKGAFQLFSADNPEEFYKQYVATGTSLVITDPMTVKSEFGKTGGKYENKAYQIDFGNGYATEVVVNNVPKITPKKDVTVSLDPTSENLDGQTVQLYQTFNYRLIGGLIPQNHSEELEDYSFVDDYDQAGDQYTGNYKTFSSLNLTMKDGSVIKAGTDLTSQTTAETDATNGIVTVRFKEDFLQKISLDSPFQAETYLQMRRIAIGTFENTYVNTVNKVAYASNTVRTTTPIPRTPDKPTPIPTPKPKDP | 5.24e+06 | 191 | 6920 | 0.00132 | 2.38e+07 | 42.1 | 18200 | 0.000759 | 7.97e+06 | 125 | 8300 | 0.00104 | 3.91e+06 | 256 | 9250 | 0.00237 | quantity of protein that adhered to iSRCR123, higher than iSRCR1 (iSRCR123 [2]; analyte at 2 μM, iSRCR123 versus iSRCR1): 43%; KA (SAG): 1.63e+08 M⁻¹; ka (SAG): 320000 M⁻¹ s⁻¹; kd (SAG): 0.00197 s⁻¹; inhibition of binding of the A3VP1 fragment of the same protein (iSRCR1 [4]): 54%; inhibition of binding of the C123 fragment of the same protein (iSRCR1 [4]): 23%; inhibition of binding of the A3VP1 fragment of the same protein (iSRCR123 [5]): 68%; inhibition of binding of the C123 fragment of the same protein (iSRCR123 [5]): 76%
